According to US20260152565A1 (Dana-Farber, published 2026):
Residue numbers refer to the chain shown, from its start. Where two headings read alike, the source gives them in different places.

B1: PR000940 (antibody, V domains shown)
VH: EVQLLESGGGLVQPGGSLRLSCAASGFTFSSYAMIWVRQAPGKGLEWVSGISESGGSTYYADSVKGRFTISRDNSKNTLYLQMNSLRAEDTAVYFCVKDLDDILTGYYKDYWGQGTLVTVSS
notes: Heavy chain-only antibody from Harbour HCAb mice: dimer of two heavy chains, each with VH, CH2 and CH3; also called HCAb antibody PR000940; not shown: constant part (CH2 and CH3 regions of the Harbour HCAb format)
B2: PR000943 (antibody, V domains shown)
VH: EVQLVETGGGLIQPGGSLRLSCAASGFPVSSNYMSWVRQAPGKGLEWVSVIFSGGRTYYADSVKGRFTISRDNSKNTLYLQMNSLRAEDTAVYYCARRNWIDGRDAFDIWGQGTMVTVSS
notes: also called HCAb antibody PR000943; not shown: constant part (CH2 and CH3 regions of the Harbour HCAb format)
B3: PR001035 (antibody, V domains shown)
VH: B2 VH with P28T, S35T, R56S, N99I, W100A, I101V, D102A, R104H, A106V
notes: also called HCAb antibody PR001035; not shown: constant part (CH2 and CH3 regions of the Harbour HCAb format)
B4: PR000274 (clone CA8-J6M0) (antibody, V domains shown)
VH: QVQLVQSGAEVKKPGSSVKVSCKASGGTFSNYWMHWVRQAPGQGLEWMGATYRGHSDTYYNQKFKGRVTITADKSTSTAYMELSSLRSEDTAVYYCARGAIYDGYDVLDNWGQGTLVTVSS
VL: DIQMTQSPSSLSASVGDRVTITCSASQDISNYLNWYQQKPGKAPKLLIYYTSNLHSGVPSRFSGSGSGTDFTLTISSLQPEDFATYYCQQYRKLPWTFGQGTKLEIKR
B5: PR001046 (antibody, V domains shown)
VH: EVQLVETGGGLIQPGGSLRLSCAASGFTVSDNYMTWVRQAPGKGLEWVSVIFSGGNTYYADSVKGRFTISRDNAKNTLYLQMNSLRAEDTALYYCARRNYDDTRGTDVFDIWGQGTMVTVSS
notes: also called HCAb antibody PR001046; PR001046 VH-only human IgG1 test antibody; not shown: constant part (CH2 and CH3)

Assays:
[1] = molecular target: T1, BCMA on cells, species not stated (Homo sapiens (Human), UniProt Q02223 1-184); assay: cell binding, MFI against antibody concentration, panel title Bind to NCI-H929 cell
T1 construct: also called BCMA cells; 3T3 BCMA cells
T1 sequence: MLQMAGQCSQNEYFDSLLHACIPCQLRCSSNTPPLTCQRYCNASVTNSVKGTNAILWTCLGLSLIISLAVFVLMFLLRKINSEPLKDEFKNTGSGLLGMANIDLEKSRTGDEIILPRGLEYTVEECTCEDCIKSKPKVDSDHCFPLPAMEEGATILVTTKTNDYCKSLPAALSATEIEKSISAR

[2] = molecular target: T2, cynomolgus monkey BCMA expressed on HEK 293T cells (cynomolgus monkey, UniProt A0A2K5UD97 1-183); assay: cell binding, MFI against antibody concentration, panel title Bind to HEK293T - cyno BCMA
T2 construct: also called HEK 293T-cyno BCMA cells; cyno BCMA
T2 sequence (A0A2K5UD97 entry or part of it limits assumed): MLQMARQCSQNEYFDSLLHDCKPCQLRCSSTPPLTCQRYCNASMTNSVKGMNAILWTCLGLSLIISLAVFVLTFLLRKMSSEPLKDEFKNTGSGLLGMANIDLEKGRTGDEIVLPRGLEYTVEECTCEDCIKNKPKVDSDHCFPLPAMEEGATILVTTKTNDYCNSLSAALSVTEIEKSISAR

[3] = molecular target: T1, BCMA on cells, species not stated; assay: blocking of BAFF binding to BCMA cells
[4] = molecular target: T3, human BCMA (TNFRSF17) expressed on cells (human, UniProt Q02223 1-184); assay: cell binding, MFI against antibody concentration, HEK 293T-hu BCMA cells (cell line from legend paragraph 17)
T3 construct: whole, on cells; also called HEK 293T-hu BCMA cells; human BCMA cell lines
T3 sequence (looked up): T1 sequence

[5] = molecular target: T4, hBCMA-his-biotin (Acro, BCA-H82E4) (human, UniProt Q02223 1-54, biotin (as printed: hBCMA-his-biotin; site not stated)); assay: biosensor kinetics, SA sensor loaded with hBCMA-his-biotin, antibody in solution
T4 construct: Bought reagent; not shown: His tag
T4 sequence (looked up): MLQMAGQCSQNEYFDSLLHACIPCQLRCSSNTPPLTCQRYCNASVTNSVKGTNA
Protocol: (§1) The sensor was streptavidin (SA), loaded with hBCMA-his-biotin from Acro catalog number BCA-H82E4, and 50 nM antibody with a 1:2 dilution factor. Association times in FIG. 5A-FIG. 5C were each 600 s and dissociation times were each 900 s.

[6] = molecular target: T4, hBCMA-his-biotin (Acro, BCA-H82E4); assay: as above; remark: listed apart in the source
Protocol: as §1

EGFR = molecular target: T5, EGFR (human, UniProt P00533 25-1210); assay: cell microarray, confirmation screen, control receptor; cell left blank in Table 13
T5 construct: whole, on cells; also called control receptor
Protocol: In order to screen the on-target specificity of one of the VH-only anti-BCMA-targeted CARs, the Retrogenix Cell Microarray Technology platform was employed, which is a high-throughput platform for screening binding interactions between a test molecule and about 6100 human surfaceome proteins.
This was performed on both fixed and live cells (FIGS. 11A-11D).

| Binder | EC50 (read off the curve) [1] | binding result [2] | Span [3] | EC50 (read off the curve) [4] | Kd [5] | koff [5] | kon [5] | Kd [6] | koff [6] | kon [6] | binding result (EGFR) |
| --- | --- | --- | --- | --- | --- | --- | --- | --- | --- | --- | --- |
| B1 | ~2 nM | no binding | – | – | – | – | – | – | – | – | – |
| B2 | ~4 nM | – | 2.19 | ~0.01 µg/mL | – | – | – | – | – | – | – |
| B3 | ~1 nM | – | 1.92 | ~0.02 µg/mL | – | – | – | – | – | – | – |
| B4 | ~10 nM | – | 1.86 | – | < 0.001 nM | < 1e-07 s⁻¹ | 228000 M⁻¹ s⁻¹ | < 0.001 nM | < 1e-07 s⁻¹ | 195000 M⁻¹ s⁻¹ | – |
| B5 | ~2 nM | – | 1.99 | ~0.02 µg/mL | – | – | – | – | – | – | no binding (tested: 2.5 µg/mL) |
